# Experimental data as given in paper PMC2033760, “Interleukin 1 modulates growth of human renal carcinoma cells in vitro” (British Journal of Cancer, 1995).
# T1: IL-1 receptor type I (human (endogenous in A-498), UniProt P14778 18-569)
# T1 construct: In the functional row on Caki-2 cells the endogenous receptor of those cells is meant; it was not detected there directly; also called IL-1 receptor type I (80 kDa); source: endogenous, on A-498 cells
# T1 sequence (looked up): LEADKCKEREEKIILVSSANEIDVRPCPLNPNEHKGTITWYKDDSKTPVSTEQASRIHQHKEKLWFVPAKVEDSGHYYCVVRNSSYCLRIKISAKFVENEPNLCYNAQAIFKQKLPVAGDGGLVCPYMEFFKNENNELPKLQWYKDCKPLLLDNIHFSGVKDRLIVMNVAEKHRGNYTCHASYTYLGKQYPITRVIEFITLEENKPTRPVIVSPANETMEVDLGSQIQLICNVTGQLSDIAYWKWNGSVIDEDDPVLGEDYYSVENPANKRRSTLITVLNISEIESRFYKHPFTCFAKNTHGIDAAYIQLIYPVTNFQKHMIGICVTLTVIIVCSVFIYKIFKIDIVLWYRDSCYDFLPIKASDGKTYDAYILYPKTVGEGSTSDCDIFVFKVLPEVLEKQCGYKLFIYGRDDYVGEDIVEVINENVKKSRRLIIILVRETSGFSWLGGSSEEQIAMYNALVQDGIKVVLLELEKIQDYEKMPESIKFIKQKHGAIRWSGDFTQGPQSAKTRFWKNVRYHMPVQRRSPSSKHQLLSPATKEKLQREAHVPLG
# B1: [125I]IL-1 alpha (ligand, UniProt P01583 113-271, looked up)
# chain: SAPFSFLSNVKYNFMRIIKYEFILNDALNQSIIRANDQYLTAAALHNLDEAVKFDMGAYKSSKDDAKITVILRISKTQLYVTAQDEDQPVLLKEMPEIPKTITGSETNLLFFWETHGTKNYFTSVAHPNLFIATKQDYWVCLAGGPPSITDFQILENQA
# modifications: 125I label (radioiodinated)
# notes: interleukin 1 alpha, the 17 kDa form as printed; also called radiolabelled interleukin 1 alpha; source: bought: Amersham-Buchler
# Molecular target: T1, IL-1 receptor type I
# Test: radioligand binding; [125I]IL-1 alpha at increasing concentrations (direct) or at 80 pM with increasing unlabelled IL-1 alpha (competition) on subconfluent A-498 cells in 24-well plates; cells washed with binding medium pH 3.0 for 30 s beforehand; binding medium with 20 mM HEPES pH 7.0; 3 h at 4 C; Scatchard analysis, two classes of binding sites
# Conditions: one partner purified
binder,measurement,value
B1,KD of the high-affinity sites,0.045 nM
same,KD of the low-affinity sites,1.3 nM
